According to patent publication US6638518B1 (priority 1999, dated 2003):
Like-named read-outs stand apart in the source and are kept apart here.

B1: FAP-A: Fibronectin attachment protein produced by M. avium (SEQ ID NO:5, GenBank AAB50543), recombinant fusion protein (protein, listed as Mycobacterium avium)
chain: MDQVEATSTRRKGLWTTLAITTVSGASAVVIALPETSHADPEVPTPVPPSTATTPHPRRRRIPGQPADNAQAGAPAPAPNGQQRPPRRRRMIPTRAPPPAGAPPNGAPPAAPNGAPPPPVDPNAPPPPPADPNAGRIPNSYVLPAGWVESDASHLDYGSALLSKVTGPPPMPDQPPPVANDTRIVMGRVDQKLYASAEANNAKAAVGLGSDMGEFFMPYPGTRINQDSTPLNGANGSTGSASYYEVKFSDASKPNGQIWTGVIGSANAGNRQRWFVVWLGTSNDPVDKVAAKALAESIQAWTPPPAPPAAPGGPGAPAPGAPGAPAPGAPAAPGVTAPAAPAPAAPGAPAAPGAPAPEPGQAPAVEVSPTPTPTPQQTLSA
modifications: recombinant fusion partner

How the values were obtained:
human fibronectin = molecular target: T1, human fibronectin (Homo sapiens, UniProt P02751); assay: Attachment of FAP to fibronectin (biotinylated fusion proteins on coated wells); type: binding
T1 construct: purchased Collaborative Biomedical Products, Bedford, Mass
T1 sequence (P02751 32-2477): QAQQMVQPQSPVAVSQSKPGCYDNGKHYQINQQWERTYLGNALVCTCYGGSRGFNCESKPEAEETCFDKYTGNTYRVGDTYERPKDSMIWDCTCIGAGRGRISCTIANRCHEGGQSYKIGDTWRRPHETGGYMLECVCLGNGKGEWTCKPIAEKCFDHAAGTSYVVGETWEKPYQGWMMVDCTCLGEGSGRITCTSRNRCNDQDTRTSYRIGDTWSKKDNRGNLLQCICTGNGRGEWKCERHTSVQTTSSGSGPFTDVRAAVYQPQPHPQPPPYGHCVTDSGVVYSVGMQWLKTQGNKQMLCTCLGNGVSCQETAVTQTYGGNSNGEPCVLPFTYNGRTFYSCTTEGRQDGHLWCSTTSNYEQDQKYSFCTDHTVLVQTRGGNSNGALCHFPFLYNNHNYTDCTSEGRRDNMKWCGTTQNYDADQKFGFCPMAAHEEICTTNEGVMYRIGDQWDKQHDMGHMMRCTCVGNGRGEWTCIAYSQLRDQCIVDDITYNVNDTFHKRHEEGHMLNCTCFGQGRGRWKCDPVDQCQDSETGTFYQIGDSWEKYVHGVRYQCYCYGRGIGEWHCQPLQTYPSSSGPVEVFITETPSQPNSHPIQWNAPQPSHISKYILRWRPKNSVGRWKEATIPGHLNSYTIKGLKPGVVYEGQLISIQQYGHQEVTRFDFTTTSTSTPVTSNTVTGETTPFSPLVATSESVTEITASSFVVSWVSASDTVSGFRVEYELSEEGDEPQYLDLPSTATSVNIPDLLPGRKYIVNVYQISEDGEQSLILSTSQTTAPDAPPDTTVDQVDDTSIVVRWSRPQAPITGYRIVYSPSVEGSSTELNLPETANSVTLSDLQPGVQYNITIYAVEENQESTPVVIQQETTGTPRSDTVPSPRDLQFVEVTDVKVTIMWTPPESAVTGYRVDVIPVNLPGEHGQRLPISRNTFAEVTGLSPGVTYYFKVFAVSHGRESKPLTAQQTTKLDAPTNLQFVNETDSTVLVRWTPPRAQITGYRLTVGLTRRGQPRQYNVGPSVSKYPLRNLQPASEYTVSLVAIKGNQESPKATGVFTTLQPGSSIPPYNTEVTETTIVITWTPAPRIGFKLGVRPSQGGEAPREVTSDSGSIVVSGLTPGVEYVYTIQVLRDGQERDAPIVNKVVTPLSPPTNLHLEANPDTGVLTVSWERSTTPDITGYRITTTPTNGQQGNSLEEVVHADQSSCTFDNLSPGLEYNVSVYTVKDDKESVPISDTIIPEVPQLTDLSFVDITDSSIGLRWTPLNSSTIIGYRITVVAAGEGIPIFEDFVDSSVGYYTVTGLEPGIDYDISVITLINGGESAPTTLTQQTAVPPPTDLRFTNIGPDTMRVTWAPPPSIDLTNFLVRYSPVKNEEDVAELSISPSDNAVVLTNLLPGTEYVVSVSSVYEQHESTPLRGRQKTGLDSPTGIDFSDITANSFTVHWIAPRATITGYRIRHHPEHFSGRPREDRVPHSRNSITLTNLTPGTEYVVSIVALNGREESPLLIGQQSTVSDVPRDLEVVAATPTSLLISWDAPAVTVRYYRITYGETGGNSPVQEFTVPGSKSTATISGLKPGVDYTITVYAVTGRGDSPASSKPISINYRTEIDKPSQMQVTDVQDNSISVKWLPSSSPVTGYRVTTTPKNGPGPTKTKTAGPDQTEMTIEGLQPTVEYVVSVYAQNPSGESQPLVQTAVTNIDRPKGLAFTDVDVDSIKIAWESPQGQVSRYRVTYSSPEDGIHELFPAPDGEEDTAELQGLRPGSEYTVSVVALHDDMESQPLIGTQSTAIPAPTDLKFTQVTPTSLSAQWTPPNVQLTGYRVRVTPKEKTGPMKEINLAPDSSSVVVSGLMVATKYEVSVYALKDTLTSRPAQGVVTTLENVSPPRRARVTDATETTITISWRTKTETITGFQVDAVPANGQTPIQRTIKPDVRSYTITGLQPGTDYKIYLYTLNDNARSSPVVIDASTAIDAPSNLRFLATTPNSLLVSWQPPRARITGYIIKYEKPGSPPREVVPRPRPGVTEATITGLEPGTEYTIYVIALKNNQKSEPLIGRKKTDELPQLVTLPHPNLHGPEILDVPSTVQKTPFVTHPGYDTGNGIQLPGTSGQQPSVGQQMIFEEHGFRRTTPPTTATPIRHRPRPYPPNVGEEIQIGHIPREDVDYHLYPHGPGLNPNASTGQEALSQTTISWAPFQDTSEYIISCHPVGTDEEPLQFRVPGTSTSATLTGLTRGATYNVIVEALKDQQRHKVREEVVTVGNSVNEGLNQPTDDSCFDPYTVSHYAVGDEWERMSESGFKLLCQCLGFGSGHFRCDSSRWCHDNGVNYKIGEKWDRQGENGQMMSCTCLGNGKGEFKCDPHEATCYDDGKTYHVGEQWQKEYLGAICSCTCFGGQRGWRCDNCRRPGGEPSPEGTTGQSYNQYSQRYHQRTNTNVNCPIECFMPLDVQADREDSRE
Method: Ninety-six-well Immulon II plates (Dynatech, Chantilly, Va.) were coated with 1 μg of human fibronectin (Collaborative Biomedical Products, Bedford, Mass.) or bovine serum albumin (BSA) at 37° C. overnight. Recombinant FAP-B, FAP-A, and β-galactosidase fusion proteins were produced in the pTrcHis vector and purified as described for FAP-B, were biotinylated with NHS-LC-Biotin (Pierce, Rockford, Ill.). Biotinylated FAP-B, FAP-A and β-galactasidase fusion proteins (0.5 μg and 2 μg) were added to wells coated with fibronectin or BSA and incubated at 25° C. for 1 hour. The bound fusion proteins were detected with streptavidin-HRP (1:10,000 dilution; Pierce) and o-phenylenediamine dihydrochloride (Sigma) substrate.

[1] = tested on: BCG attachment to fibronectin; type: binding, M. bovis BCG; settings: recombinant FAP 1 μM or peptide, 90 minutes, 37° C.; FIG. 4

Row | Molecule | binding to fibronectin-coated wells (human fibronectin) | inhibition of BCG attachment to fibronectin [1] | binding to fibronectin-coated wells (human fibronectin; biotinylated fusion proteins 0.5 μg and 2 μg, 25° C., 1 hour, FIG. 2)
1 | β-galactosidase: Control recombinant β-galactosidase fusion protein produced in the pTrcHis vector | did not bind to fibronectin | – | –
2 | FAP-A269-292: Synthesized peptide of amino acids 269-292 of FAP-A, a conserved fibronectin binding region (GNRQRWFVVWLGTSNDPVDKVAAK) | – | inhibit BCG attachment to fibronectin in an equivalent manner | –
3 | B1 | – | inhibit BCG attachment to fibronectin in an equivalent manner | bound to wells coated with fibronectin
